# Test: soluble on expression in E. coli; label from the status in PepcDB or PDB records
row,Sequence,soluble on expression in E. coli
1,MGGSHHHHHHGMASGKSDFLTPKAIANRIKSKGLQKLRWYCQMCQKQCRDENGFKCHCMSESHQRQLLLASENPQQFMDYFSEEFRNDFLELLRRRFGTKRVHNNIVYNEYISHREHIHMNATQWETLTDFTKWLGREGLCKVDETPKGWYIQYIDRDPETIRRQLELEKKKKQDLDDEEKTAKFIEEQVRRGLEGKEQEVPTFTELSRENDEEKVTFNLSKGACSSSGATSSKSSTLGPSALKTIGSSASVKRKESSQSSTQSKEKKKKKSALDEIMEIEEEKKRTARTDYWLQPEIIVKIITKKLGEKYHKKKAIVKEVIDKYTAVVKMIDSGDKLKLDQTHLETVIPAPGKRILVLNGGYRGNEGTLESINEKTFSATIVIETGPLKGRRVEGIQYEDISKLA,not soluble
2,MGSDKIHHHHHHMQQLQAAVALHKQGELDKAEAIYQQVLAVDVNNFYALNFCGSIKREKKRFDEGIDFLSRAISLQPDNPDAIYNLGNVFKDSERWDEAISCYEKTLGLRAESPEALNNLGICLKEVERFEYSEIVLRRVVSMQPGLAGAWLNLGNTFKEQEKYSEAKASYRNAIDLKPDFEAAYFALGLVLKEEGKVEEAIASYRKAIELKPDFADVYFALGLVLKEAGEFEAARQIVSALSTVNAMEDSTLLSFSLCDLVFDWYHRRVLNLLEDVEMTALSGASAPFSAYETVRKIQPQLFPPLFLKGEGDRANEKHLYRNGYLVEDEILPEDLCAEFVNGFEGANAMSAALIRAVSEKGVLGSVLGKIFKHTDFPHLVWNCIYFAKGPDDQAISDAWHYDNHYNVWTPKLMIYLNSQREEGGATEFVDTSLSRRLSEETDYMGFIWQRESYADRVKGSVKDLGLDPATLDPDHYTFSPDHAGSGVWFCPSRVLHRGVSPKKGVRHVLSFSLTPLPHDCGWSIDQCVDKSIEILQDKINKGMQKSDVNPYWIPAEAGYA,not soluble
3,MNKKIFVIGSGLSGLVASTELLKKGYHVTMLDQEPRQAIGGQAYWSFGGLFLVNSKIQQRLGVKDSYELALNDWLGSAQFDRPDDEDYWAKQWAEAYVRFATFEKENYLKEMGVRLTPILGWAERGGASASGHGNSVPRFHITWGTGPGLVEPFSRFVLEKEQEGQFKFLPRHQVTDIGIEHNQVTHISGIILEPSDVERGEKSSRTVIDTFHYEVDELLITSGGIGANMPLIRKYWPKRLGNPPKTMIQGVPDSTDGHLIQVTEDAGANIVNKDRMWHYTEGIQNHSPIWSNHGIRIIPGPSSMWFDATGKRMAAPDYPGFDTLHTLETIMKTGYDYSWFILTEDIIKKEFVLSGSEQNPDLTDKDIKLLLQERLGSKATSPVEAFMDKGPDFILADDLGMLVRKMNDLAGNDLLNYETIKHEIKARDLQIDNPFTKDPQVAFINNARQFLGNKLVRTAKPHKILSGRNGRLIAVKLNIISRKTLGGIQTNLDGQALNPSMQPIQGLYAAGEASGFGGGGVHGYRALEGTFLGGCIFSGIRAAEGIHHHIQLEHHHHHH,soluble
4,MVTCGSIFIIRIACKDKKGQASGKDNKEKRVFRAVTGNKSESYFPFGHIFIFSQGATRTDEKSFLLSEDYEPKTVGLRCVFWRKHAREIFRFGSKNFYFSRHNEKIFAPRLFQPYSGFFSNDKREKVSMCHR,not soluble
5,MADAAEGEQPKLSKKELNKLARKAKKDEKAGEKGGNQQQAAAMDQEDASKDFYGSYGLVNSKEKKVLNFLKVKEINVSNATKDVWVRGRIHTTRSKGKNCFLVLRQGVYTVQVAMFMNEKISKQMLKFVSSISKESIVDVYATINKVDNPIESCTQKDVELLAQQVFVVSTSAPKLPLQIEDASRRAPTDEEKASEQENQLAVVNLDTRLDNRVIDLRTPTSHAIFRIQAGICNQFRNILDVRGFVEIMAPKIISAPSEGGANVFEVSYFKGSAYLAQSPQLYKQMAIAGDFEKVYTIGPVFRAEDSNTHRHMTEFVGLDLEMAFNFHYHEVMETIAEVLTQMFKGLQQNYQDEIAAVGNQYPAEPFQFCEPPLILKYPDAITLLRENGIEIGDEDDLSTPVEKFLGKLVKEKYSTDFYVLDKFPLSVRPFYTMPDAHDERYSNSYDMFMRGEEILSGAQRIHDADMLVERAKHHQVDLAKIQSYIDSFKYGCPPHAGGGIGLERVTMLFLGLHNIRLASLFPRDPKRLTP,not soluble
6,MLDANKLQQAVDQAYTQFHSLNGGQNADYIPFLANVPGQLAAVAIVTCDGNVYSAGDSDYRFALESISKVCTLALALEDVGPQAVQDKIGADPTGLPFNSVIALELHGGKPLSPLVNAGAIATTSLINAENVEQRWQRILHIQQQLAGEQVALSDEVNQSEQTTNFHNRAIAWLLYSAGYLYCDAMEACDVYTRQCSTLLNTIELATLGATLAAGGVNPLTHKRVLQADNVPYILAEMMMEGLYGRSGDWAYRVGLPGKSGVGGGILAVVPGVMGIAAFSPPLDEDGNSVRGQKMVASVAKQLGYNVFKGLEHHHHHH,not soluble
7,AMACWAQSQGYNCCNNPSSTKVEYTDASGQWGVQNGQWCGIDYSYGQNQGNESCTGNGSYPCCNTCQATYTDGDGDWAFENGNWCGIKNSCKQQPQNNNQ,soluble
8,MNSQDAQNQVPPQKVDQEVDRLALMARAHQAIGELSDILVPLAAAFSSKGHSLYLVGGSVRDAFLGELGHDLDFTTSARPEETKAILDDYADVVWDTGIAFGTLSAEKHGQQIEITTFRSDLYDGNSRNPEVTFGDTLEGDLIRRDFKVNAMAVEIQADGELTFHDPVGGLEDLLTHTLDTPATPEQSFNDDPLRMLRAARFVSQLNFTLAPRVITAMTEMAQQITRITVERMQVELDKMILGKNPEAGIDLMVESGIAQIIYPEIPAMQMTQDEHMQHKDVYAHSLQVMRQAIDQEEDGPDLVLRWAALLHDCGKPDTRDFNEEGRVSFHQHEVVGAKLVRRRMRKLKYSKQMVGDVGQLVFLHMRFHGFSEGQWTDSAVRRYAADAGELLPRLHKLVRADCTTRNKRKAARLQATYDHLEERIAEIAAKEDLARVRPDLDGNEIMEILNIQAGPEVGKAWAFLKELRLERGPLDREVAIAELKSWWEGENNE,not soluble
9,MYKNNFENYMNLDIYKDIEEIRAALEHLGAKKILLQLPDGLKPEVYHYFNYLSANYNVVISSSPVYGACDIGPSSIYDKVDAIVQIGHSPMPNVKYPKPTIFVEHHYNARISNIDTSLLEGKYDRIGLLFSVQYKEVADEVRKIFENKGFTVIIGKKDGRMAYDGQVLGCNFSSVHSISYDVDAYVLVSTGQFHGIGAQLSTEREVFVLDLNDYKLHSMKDEADKFIRKRYAQIFRAKEARKICIISDTRIGQRRERLARIILRQVQQMGLEGILAVTDNISNQDLENMRCDAVVYTGCPRVPIDDQQKFTMPLLTPAEFEMGFVKNSNRYVLDEIVSVDDPADKLEHHHHHH,not soluble
10,MSNQYGDKNLKIFSLNSNPELAKEIADIVGVQLGKCSVTRFSDGEVQINIEESIRGCDCYIIQSTSDPVNEHIMELLIMVDALKRASAKTINIVIPYYGYARQDRKARSREPITAKLFANLLETAGATRVIALDLHAPQIQGFFDIPIDHLMGVPILGEYFEGKNLEDIVIVSPDHGGVTRARKLADRLKAPIAIIDKRRPRPNVAEVMNIVGNIEGKTAILIDDIIDTAGTITLAANALVENGAKEVYACCTHPVLSGPAVERINNSTIKELVVTNSIKLPEEKKIERFKQLSVGPLLAEAIIRVHEQQSVSYLFS,soluble
11,QVQLVESGGGLVQPGGSLRLSCATSGFTFTDYYMSWVRQPPGKALEWLGFIRNKANGYTTEYSASVKGRFTISRDNSQSILYLQMNTLRAEDSATYYCARDGSYAMDYWGQGTSVTVSSASTKGPSVFPLAPSSKSTSGGTAALGCLVKDYFPEPVTVSWNSGALTSGVHTFPAVLQSSGLYSLSSVVTVPSSSLGTQTYICNVNHKPSNTKVDKKVEP,soluble
12,SNAQDVPVTQVMTPRPVVFRVDATMTINEFLDKHKDTPFSRPLVYSEQKDNIIGFVHRLELFKMQQSGSGQKQLGAVMRPIQVVLNNTALPKVFDQMMTHRLQLALVVDEYGTVLGLVTLEDIFEHLVGE,soluble
13,MSLNQWMELADRVLAGAEVTDEEALSILHCPDEDILLLMHGAFHIRKHFYGKKVKLNMIMNAKSGLCPENCGYCSQSAISKAPIESYRMVNKETLLEGAKRAHDLNIGTYCIVASGRGPSNREVDQVVDAVQEIKETYGLKICACLGLLKPEQAKRLKDAGVDRYNHNLNTSQRNHSNITTSHTYDDRVNTVEIAKESGLSPCSGAIIGMKETKQDVIDIAKSLKALDADSIPVNFLHAIDGTPLEGVNELNPLYCLKVLALFRFINPSKEIRISGGREVNLRTLQPLGLYAANSIFVGDYLTTAGQEETEDHKMLSDLGFEVESVEEMKASLSAKSEGHHHHHH,soluble

# From the DeepSol protein solubility set
